Assays:
[1] = test system: T1, His6-CssR (Corynebacterium glutamicum RES167), ORF:46f2a94e; assay: EMSA; settings: EMSA: 10 mM Tris-HCl pH 7.4, 5 mM MgCl2, 50 mM KCl, 5% glycerol, 0.1% NP40, 1 ug poly(dI:dC), 0.5 mM EDTA, 20 ng DNA in 20 ul, room temperature 30 min
T1 sequence: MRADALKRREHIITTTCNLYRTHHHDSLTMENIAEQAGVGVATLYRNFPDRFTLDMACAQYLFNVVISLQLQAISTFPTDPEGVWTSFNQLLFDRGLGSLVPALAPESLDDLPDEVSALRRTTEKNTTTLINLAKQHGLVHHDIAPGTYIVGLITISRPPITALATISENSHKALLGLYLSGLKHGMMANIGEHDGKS

[2] = test system: His6-CssR (Corynebacterium glutamicum RES167); assay: EMSA; settings: apparent KD; EMSA: 10 mM Tris-HCl pH 7.4, 5 mM MgCl2, 50 mM KCl, 5% glycerol, 0.1% NP40, 1 ug poly(dI:dC), 0.5 mM EDTA, 20 ng DNA in 20 ul, room temperature 30 min
[3] = molecular target: His6-CssR (C. glutamicum stress-sensing regulator, NCgl1578) (Corynebacterium glutamicum RES167); assay: SEC; Superdex 75 10/300 GL, 50 mM potassium phosphate pH 7.4, 0.15 M NaCl; calibrated with a low molecular weight gel filtration kit (Kav versus log molecular weight); native mass 52 kDa
[4] = test system: T1, His6-CssR (Corynebacterium glutamicum RES167), ORF:46f2a94e; assay: DNase I footprinting; settings: EMSA: 10 mM Tris-HCl pH 7.4, 5 mM MgCl2, 50 mM KCl, 5% glycerol, 0.1% NP40, 1 ug poly(dI:dC), 0.5 mM EDTA, 20 ng DNA in 20 ul, room temperature 30 min

Substance | binding [1] | further results
GAAGTTTTTCAAAGTGTCTGACGTTGAAAACGGTGAGTTCACAACTAGGGTGAATGGTGCACGTGATGCTGCACTTTTACGTTTACTACTTTGAGGGAAAC (double strand) [trx promoter] | no binding | 
GGTATTGGGCGCATGCCATGTCCAGTGTGAAGCGATCGGGGAAGTTTCGGTATAAAGTTGCAACACCCACTCCTGCCTGTTCTGCAATGTTTTCCATGGTGAGCGAATCGTGATGGTGTGTGCGGTAGAG (double strand) [131-bp cssR coding region control] | no binding | 
GTTGTTGTCCTCTAGTTGACAGCGGGGGTGGTGGTGGTCCTAAAATAGCCTACGATAACTGATAGTGTTTCCTCCACTTACGGAAGAAGATACATGAATACCCCTCTTTTGAGAAGCTCTGGGCTCTCCAT (double strand) [131-bp PcssR] | binds | Kd [1]: 17 nM
AACACCGCGAATTATAGACTGAACTGGTACTTGGGAAGCTTTTTATAGTCATATGCGTTGAGATACGTGGACGACAAAGCACCAGTTAGTTGCCTTCCCAGTCCAGCCCACATCCGATTTCTAAATTAGGAGCACATC (double strand) [mtr promoter] | no binding | 
131-bp PcssR |  | Kd [2]: 17 nM
His6-CssR (C. glutamicum stress-sensing regulator, NCgl1578) (natural protein) |  | stoichiometry N [3]: 2
CGTAATTATTTCCGCGACAAGCTATTTGCAAGCTATGTGCAGGCTCATTGCACAAGTTCAGCGCGGAGACACGTCCTAAAAAATACTTATGAAATTATGTTCGACACCGAAATGTCACCTGAAACTTCAACCAAGCCGCCAGTGCACCTATTCCACAAACCAAAAAATCCGCCAACACGAATGCGGCGGATTTTTAAGATGTACAGG (double strand) [mshC promoter] | no binding | 
CGTTTTAGTGCGTCTGCTCTCATGTTGTTGTCCTCTAGTTGACAGCGGGGGTGGTGGTGGTCCTAAAATAGCCTACGATAACTGATAGTGTTTCCTCCACTTACGGAAGAAGATACATGAATACCCCTCTTTTGAGAAGCTCTGGGCTCTCCATCCGCGACACACCCTTCGCCGATGTTGAGATAGCTCCAGACAGCGGACTCAC (double strand) [PcssR footprint fragment] |  | binding [4]: binds
GATCACCGCATGTGAAACAAGCGGATACGCAATGAGCATCCCCCACGCCCACTGCACATTAAACACCCAATTCAACACCGCAAAACCCACCAAAAACAGCAGCGTCGCGATCACACAAGCAGCGTCAGATCTTTGCGGCATAGCGCCATC (double strand) [mrx1 promoter] | no binding | 
